Among the data in paper PMC5605669 are k2 (rate of oligomer formation on ssDNA) values, retold here.

For this experiment, the target named is APOBEC3G, wild type (human), Q9HC16. The experiment in a line: optical tweezers (single-molecule ssDNA extension); self-association of A3G bound to force-melted lambda-DNA (ssDNA) held at 80 pN; 10 to 200 nM A3G flowed in; 10 mM HEPES, 50 mM Na+, pH 7.5, 21 °C; two-exponential fit of incubation curves, k2 = rate of oligomer formation at saturating binding. The note with it: remark: other sources report otherwise.

B1: APOBEC3G, wild type, Q9HC16 1-384 (enzyme)
chain: MKPHFRNTVERMYRDTFSYNFYNRPILSRRNTVWLCYEVKTKGPSRPPLDAKIFRGQVYSELKYHPEMRFFHWFSKWRKLHRDQEYEVTWYISWSPCTKCTRDMATFLAEDPKVTLTIFVARLYYFWDPDYQEALRSLCQKRDGPRATMKIMNYDEFQHCWSKFVYSQRELFEPWNNLPKYYILLHIMLGEILRHSMDPPTFTFNFNNEPWVRGRHETYLCYEVERMHNDTWVLLNQRRGFLCNQAPHKHGFLEGRHAELCFLDVIPFWKLDLDQDYRVTCFTSWSPCFSCAQEMAKFISKNKHVSLCIFTARIYDDQGRCQEGLRTLAEAGAKISIMTYSEFKHCWDTFVDHQGCPFQPWDGLDEHSQDLSGRLRAILQNQEN
With B1, the k2 (rate of oligomer formation on ssDNA) was 0.007 s⁻¹.
